From PMC6048764, “Myricetin antagonizes semen-derived enhancer of viral infection (SEVI) formation and influences its infection-enhancing activity” (Retrovirology, 2018) come the findings set out here.

The labels stand for the following.
B1: wild-type PAP257–273 [human] / itself (parent)
chain: RLQGGVLVNEILNHMKR

Variants of B1 are the subject of this assay. The experiment in a line: ThT assay (amyloid fibril formation, self-assembly). Conditions: with itself; peptide 3 mg/ml, agitated at 1400 rpm at 37 °C for 48 h; parent: 5.5e+03; read off a plot.
Take chain 1 R17A: the response amounted to 8300. Next, chain 1 L2A: 7800; chain 1 Q3A: 5100. In the case of chain 1 L12A, the response worked out at 11000. Regarding chain 1 V8A, the response stood at 200. Next, chain 1 M15A: 1400.
